B1: SHP: Small Heterodimer Partner (NR0B2), cDNA driver (protein, UniProt Q15466 1-257, looked up)
Nuclear receptor subfamily 0 …: MSTSQPGACPCQGAASRPAILYALLSSSLKAVPRPRSRCLCRQHRPVQLCAPHRTCREALDVLAKTVAFLRNLPSFWQLPPQDQRRLLQGCWGPLFLLGLAQDAVTFEVAEAPVPSILKKILLEEPSSSGGSGQLPDRPQPSLAAVQWLQCCLESFWSLELSPKEYACLKGTILFNPDVPGLQAASHIGHLQQEAHWVLCEVLEPWCPAAQGRLTRVLLTASTLKSIPTSLLGDLFFRPIIGDVDIAGLLGDMLLLR
B2: PR: Progesterone Receptor (NR3C3), cDNA driver (protein, UniProt P06401 1-933, looked up)
Progesterone receptor: MTELKAKGPRAPHVAGGPPSPEVGSPLLCRPAAGPFPGSQTSDTLPEVSAIPISLDGLLFPRPCQGQDPSDEKTQDQQSLSDVEGAYSRAEATRGAGGSSSSPPEKDSGLLDSVLDTLLAPSGPGQSQPSPPACEVTSSWCLFGPELPEDPPAAPATQRVLSPLMSRSGCKVGDSSGTAAAHKVLPRGLSPARQLLLPASESPHWSGAPVKPSPQAAAVEVEEEDGSESEESAGPLLKGKPRALGGAAAGGGAAAVPPGAAAGGVALVPKEDSRFSAPRVALVEQDAPMAPGRSPLATTVMDFIHVPILPLNHALLAARTRQLLEDESYDGGAGAASAFAPPRSSPCASSTPVAVGDFPDCAYPPDAEPKDDAYPLYSDFQPPALKIKEEEEGAEASARSPRSYLVAGANPAAFPDFPLGPPPPLPPRATPSRPGEAAVTAAPASASVSSASSSGSTLECILYKAEGAPPQQGPFAPPPCKAPGASGCLLPRDGLPSTSASAAAAGAAPALYPALGLNGLPQLGYQAAVLKEGLPQVYPPYLNYLRPDSEASQSPQYSFESLPQKICLICGDEASGCHYGVLTCGSCKVFFKRAMEGQHNYLCAGRNDCIVDKIRRKNCPACRLRKCCQAGMVLGGRKFKKFNKVRVVRALDAVALPQPVGVPNESQALSQRFTFSPGQDIQLIPPLINLLMSIEPDVIYAGHDNTKPDTSSSLLTSLNQLGERQLLSVVKWSKSLPGFRNLHIDDQITLIQYSWMSLMVFGLGWRSYKHVSGQMLYFAPDLILNEQRMKESSFYSLCLTMWQIPQEFVKLQVSQEEFLCMKVLLLLNTIPLEGLRSQTQFEEMRSSYIRELIKAIGLRQKGVVSSSQRFYQLTKLLDNLHDLVKQLHLYCLNTFIQSRALSVEFPEMMSEVIAAQLPKILAGMVKPLLFHKK
B3: NR4a3: NR4a3 (NR4A3; NOR1), nuclear hormone receptor cDNA driver (protein, UniProt Q92570 1-626, looked up)
Nuclear receptor subfamily 4 …: MPCVQAQYSPSPPGSSYAAQTYSSEYTTEIMNPDYTKLTMDLGSTEITATATTSLPSISTFVEGYSSNYELKPSCVYQMQRPLIKVEEGRAPSYHHHHHHHHHHHHHHQQQHQQPSIPPASSPEDEVLPSTSMYFKQSPPSTPTTPAFPPQAGALWDEALPSAPGCIAPGPLLDPPMKAVPTVAGARFPLFHFKPSPPHPPAPSPAGGHHLGYDPTAAAALSLPLGAAAAAGSQAAALESHPYGLPLAKRAAPLAFPPLGLTPSPTASSLLGESPSLPSPPSRSSSSGEGTCAVCGDNAACQHYGVRTCEGCKGFFKRTVQKNAKYVCLANKNCPVDKRRRNRCQYCRFQKCLSVGMVKEVVRTDSLKGRRGRLPSKPKSPLQQEPSQPSPPSPPICMMNALVRALTDSTPRDLDYSRYCPTDQAAAGTDAEHVQQFYNLLTASIDVSRSWAEKIPGFTDLPKEDQTLLIESAFLELFVLRLSIRSNTAEDKFVFCNGLVLHRLQCLRGFGEWLDSIKDFSLNLQSLNLDIQALACLSALSMITERHGLKEPKRVEELCNKITSSLKDHQSKGQALEPTESKVLGALVELRKICTLGLQRIFYLKLEDLVSPPSIIDKLFLDTLPF

Assays:
[1] = test system: mAgrp promoter; assay: NHR-promoter luciferase screen, mAgrp promoter; assay type: cell-based, mouse; conditions: for Results of assays of transcription factor (+/- ligand) with mAgrp: Table 6d, luciferase activity relative to control (control = 1.00); for Luc. act., normalized to lacZ / Normalized Luc. act., normalized to control: mAgrp promoter, HR component with or without ligand; for Normalized Luc. act., normalized to control: relative to control
Method in brief: (§1)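 CV-1 cells were co-transfected with 50 ng NHR (homodimer or NHR/RXR heterodimer), 100 ng promoter-luciferase construct and 50 ng LacZ. Luciferase was normalized to LacZ and to a no-NHR/no-ligand control.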

[2] = test system: mPOMC promoter; assay: NHR-promoter luciferase screen, mPOMC promoter; assay type: cell-based, mouse; conditions: for Results of assays of transcription factor (+/- ligand) with mPOMC: Table 6d, luciferase activity relative to control (control = 1.00); for Luc. act., normalized to lacZ / Normalized Luc. act., normalized to control: mPOMC promoter, HR component with or without ligand; for Normalized Luc. act., normalized to control: relative to control
Method in brief: as §1

[3] = test system: hIRF7 promoter; assay: NHR-promoter luciferase screen, hIRF7 promoter; assay type: cell-based, human; conditions: for Normalized Luc. act., normalized to control / Luc. act., normalized to lacZ: IRF7 promoter reporter; for Normalized Luc. act., normalized to control: HR without or with its ligand, relative to control; for Luc. act., normalized to lacZ: hormone receptor (HR) without or with its ligand; for hIRF7 promoter reporter activity: transcription factor +/- ligand, control = 1.00
Method in brief: as §1

[4] = test system: mAdiponectin promoter; assay: NHR-promoter luciferase screen, mAdiponectin promoter; assay type: cell-based, mouse; conditions: for Luc. act., normalized to lacZ / Normalized Luc. act., normalized to control: Adiponectin, HR component without or with its ligand; for mAdiponectin promoter reporter activity: transcription factor +/- ligand, control = 1.00
Method in brief: as §1

[5] = test system: hMyoD promoter; assay: NHR-promoter luciferase screen, hMyoD promoter; assay type: cell-based, human; conditions: for Luc. act., normalized to lacZ / Normalized Luc. act., normalized to control: MyoD promoter reporter, co-transfected HR, without or with its ligand; for Normalized Luc. act., normalized to control: relative to control; for luciferase activity normalized to lacZ activity and to a control, hMyoD: hMyoD promoter-luciferase, CV-1 cells, NHR +/- ligand, control = 1.00
Method in brief: as §1

Molecule | Results of assays of transcription factor (+/- ligand) with mAgrp [1] | Luc. act., normalized to lacZ [1] | Normalized Luc. act., normalized to control [1] | Results of assays of transcription factor (+/- ligand) with mPOMC [2] | Luc. act., normalized to lacZ [2] | Normalized Luc. act., normalized to control [2] | Normalized Luc. act., normalized to control [3] | Luc. act., normalized to lacZ [3] | hIRF7 promoter reporter activity [3] | Luc. act., normalized to lacZ [4] | Normalized Luc. act., normalized to control [4] | mAdiponectin promoter reporter activity [4] | Luc. act., normalized to lacZ [5] | Normalized Luc. act., normalized to control [5] | luciferase activity normalized to lacZ activity and to a control, hMyoD [5]
B1 | 1.12 | 44.6 | 1.1 | 0.95 | 65.6 | 1.0 | 1.1 | 29.1 | 1.10 | 46.1 | 0.7 | 0.73 | 54.0 | 0.9 | 0.85
B2 | 1.13 | 44.7 | 1.1 | 1.10 | 75.8 | 1.1 | 1.3 | 33.0 | 1.25 | 52.9 | 0.8 | 0.84 | 70.4 | 1.1 | 1.11
B3 | 0.88 | 34.7 | 0.9 | 0.87 | 59.7 | 0.9 | 0.9 | 24.9 | 0.95 | 35.7 | 0.6 | 0.57 | 56.1 | 0.9 | 0.89

Reference: patent publication US20110263454A1, “Methods of Identifying Functional Characteristics of Promoters, Transcription Modifying Proteins and Transcription Modulating Agents” (Salk Institute for Biological Studies, priority 2008, published 2011)
